Measured values reported in article PMC11112752 (Biochemistry, 2024).

What was measured:
pull-down = target: the molecule itself; test: pull-down
SCOV1 nsp1 [1] = target: T1, SCOV1 nsp1 (SARS coronavirus 1 (Urbani strain), UniProt P0C6X7 1-180); test: EMSA; prefolded RNA; S and L complexes, n=4; settings: protein: recombinant; tags: expressed as GST fusion (pGEX); untagged 19 kDa form described, tag state in EMSA not explicit; label: biotin; hairpin
SCOV2 nsp1 [2] = target: T2, SCOV2 nsp1 (SARS coronavirus 2, UniProt P0DTD1 1-180); test: EMSA; settings: protein: recombinant; tags: expressed as GST fusion (pGEX); label: biotin; hairpin
SCOV2 nsp1 [3] = target: T2, SCOV2 nsp1; test: EMSA; 7 uM nsp1; settings: protein: recombinant; tags: expressed as GST fusion (pGEX); label: biotin; hairpin
SCOV1 nsp1 [4] = target: T1, SCOV1 nsp1; test: EMSA; 7 uM nsp1; slow-moving complex; settings: protein: recombinant; tags: expressed as GST fusion (pGEX); untagged 19 kDa form described, tag state in EMSA not explicit; label: biotin; hairpin
SCOV1 nsp1 [5] = target: T1, SCOV1 nsp1; test: EMSA; settings: protein: recombinant; tags: expressed as GST fusion (pGEX); untagged 19 kDa form described, tag state in EMSA not explicit; label: biotin; stem-loop (-6.83 kcal/mol, RNAfold)

B1: SARS coronavirus 1 nonstructural protein 1 (nsp1) (natural protein)
chain: MESLVLGVNEKTHVQLSLPVLQVRDVLVRGFGDSVEEALSEAREHLKNGTCGLVELEKGVLPQLEQPYVFIKRSDALSTNHGHKVVELVAEMDGIQYGRSGITLGVLVPHVGETPIAYRNVLLRKNGNKGAGGHSYGIDLKSYDLGDELGTDPIEDYEQNWNTKHGSGALRELTRELNGG
B1: binds (pull-down).

B2: SCOV1-SL1 (structured_RNA)
RNA: AUAUUAGGUUUUUACCUACCCAGGAAAAGCCAACCAACCUCGAU
For B2, the Kd (SCOV1 nsp1 [1]) was 1400 ± 120 nM and the binding result (SCOV2 nsp1 [2]) was “binds”.

B3: SCOV2-SL1 (structured_RNA)
RNA: AUUAAAGGUUUAUACCUUCCCAGGUAACAAAACCAACCAACUUUC
B3: binds (SCOV2 nsp1 [3]); binds (SCOV1 nsp1 [4]).

B4: control RNA (EMSA kit) (structured_RNA)
RNA: UCCUGCUUCAACAGUGCUUGGACGGAAC
B4: no binding (SCOV1 nsp1 [5]).
